The supplement of paper PMC9732359
± gives the uncertainty stated by the source.

Assay: protein stability index of a GFP-peptide fusion (yeast GPS) (PSI 1-4); higher = more stable; sorted into four equal gates, so the index is relative within each strain
Procedure, shortened: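 The protein stability index of a peptide was calculated by multiplying its read frequency in each gate by that gate's number and adding the products. The peptides were tiled 17-residue stretches of yeast proteins, fused downstream of GFP on a Cherry-expressing plasmid and carried in yeast as a pooled library. Mid-log cultures in leucine-free medium were sorted into four equal gates by GFP/Cherry ratio, and each gate's plasmids were PCR-amplified and Illumina-sequenced.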

Sequence	protein stability index (doa10∆)	protein stability index (pdr5∆)	protein stability index (san1∆)	protein stability index (ubr1∆)
LQDWQREDEFGSIPSLT [YDL088C/ASM4]	3.22 ± 0.073	3.19 ± 0.066	3.11 ± 0.049	3.53 ± 0.082
LQGIVIWDSQKFFIMIV [POP4]	1.7 ± 0.059	1.91 ± 0.064	2.21 ± 0.076	2.3 ± 0.045
LQGVTYPVLRKLYKKIA [YIL149C/MLP2]	1.94 ± 0.093	1.79 ± 0.056	1.55 ± 0.14	1.83 ± 0.055
LQISDIPAAGNNRSVSM [SRB5]	2.77 ± 0.075	2.35 ± 0.07	2.4 ± 0.083	2.8 ± 0.06
LQKKFVTKQSELNSSED [SMC1]	–	3.52 ± 0.26	–	–
LQKSSKSMITSEGEQKS [YAR002W/NUP60]	2.84 ± 0.044	2.97 ± 0.047	2.85 ± 0.04	3.06 ± 0.046
LQLELTIEDIAVAITRA [RPO31]	1.92 ± 0.057	2.12 ± 0.044	1.97 ± 0.058	2.07 ± 0.041
LQLLPLQKAVRGHVLQF [SNF2]	1.22 ± 0.029	1.29 ± 0.041	1.23 ± 0.081	1.16 ± 0.026
LQMDYKDDMKVDDAIEL [PRE9]	3.21 ± 0.14	3.42 ± 0.081	3.21 ± 0.067	3.51 ± 0.071
LQNDLIHKIQNDNNLKK [RPN5]	2.96 ± 0.081	3.24 ± 0.068	3.11 ± 0.054	3.12 ± 0.065
LQNIVMDCTKEEEATMT [YIL149C/MLP2]	3.4 ± 0.12	3.3 ± 0.1	3.31 ± 0.086	2.98 ± 0.089
LQNKPDAKKARFWSFMK [SIR4]	2.55 ± 0.098	2.68 ± 0.13	2.61 ± 0.093	2.17 ± 0.19
LQNNINNSNNNNIIRIQ [SNF11]	2.94 ± 0.089	2.57 ± 0.13	2.87 ± 0.069	3.32 ± 0.089
LQQKHELDTASRILKAQ [YGR119C/NUP57]	2.73 ± 0.045	2.83 ± 0.046	2.53 ± 0.052	3.03 ± 0.034
LQRHSGISSTLVSANND [YLR018C/POM34]	2.7 ± 0.052	2.87 ± 0.064	2.96 ± 0.062	2.94 ± 0.07
LQVDVDIAGQRDDALVV [RRP42]	2.07 ± 0.17	–	–	–
LQYGWKVERHIMDNDPV [RPO21]	1.19 ± 0.069	1.21 ± 0.12	1.37 ± 0.19	1.24 ± 0.098
LRDIGECENEIKTKQMS [SMC2]	3.05 ± 0.29	3.29 ± 0.092	3.2 ± 0.097	3.41 ± 0.12
LRDREDWGQALRLLLLL [YJR042W/NUP85]	2.83 ± 0.066	2.13 ± 0.067	2.2 ± 0.083	1.66 ± 0.044
LRDRNFSATGNFGFGID [RPL11A]	3.23 ± 0.069	3.28 ± 0.072	2.93 ± 0.1	3.25 ± 0.053
LRDSLADKIVDEFPELK [NUT2]	2.76 ± 0.098	2.41 ± 0.069	1.97 ± 0.23	1.44 ± 0.051
LRGCKFLQSVDITGIRD [GRR1]	1.72 ± 0.034	2.03 ± 0.046	1.89 ± 0.053	1.83 ± 0.04
LRIGRIEDVTPVPSDST [RPS14B]	2.91 ± 0.037	2.98 ± 0.043	2.78 ± 0.04	2.92 ± 0.037
LRLCLDIVPYFLKHNGE [RPN1]	2.3 ± 0.063	2.01 ± 0.037	1.71 ± 0.082	2.52 ± 0.074
LRLTRINSGTFVKVTKA [RPL7A]	1.89 ± 0.1	–	1.43 ± 0.28	–
LRPRKDSKDGTTLNIKV [SMB1]	–	–	3.18 ± 0.12	–
LRQFKTCPVEVIKRLEA [BRR2]	2.94 ± 0.18	3.23 ± 0.17	–	2.81 ± 0.1
LRQLLKERYTVEDELTE [RRI1]	3.04 ± 0.097	2.71 ± 0.15	3.33 ± 0.076	3.51 ± 0.084
